Data reported in patent publication EP4223783A2 (dated 2023).

Biological target: T1, SEC-purified human FcRn-HPC4 (human, UniProt P55899 24-297; P61769 21-119)
T1 construct: Immobilized on a CM5 chip by amine coupling; also called human FcRn receptor; not shown: HPC4 tag
Assay: Biacore SPR; antibody at 200, 50 and 10nM over immobilized FcRn

T1 sequence (P55899 24-297, chain 1 of 2): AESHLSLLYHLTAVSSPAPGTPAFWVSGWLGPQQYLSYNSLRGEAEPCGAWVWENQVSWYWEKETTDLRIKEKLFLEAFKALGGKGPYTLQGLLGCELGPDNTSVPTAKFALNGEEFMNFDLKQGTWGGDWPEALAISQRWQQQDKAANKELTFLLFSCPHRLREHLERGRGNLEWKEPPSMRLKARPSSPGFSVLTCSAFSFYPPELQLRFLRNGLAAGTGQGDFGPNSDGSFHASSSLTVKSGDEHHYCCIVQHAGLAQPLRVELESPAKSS
T1 sequence (P61769 21-119, chain 2 of 2): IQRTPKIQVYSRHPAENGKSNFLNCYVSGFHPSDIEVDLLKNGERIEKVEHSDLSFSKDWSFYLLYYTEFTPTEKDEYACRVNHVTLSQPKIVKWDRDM

B1: Anti-CD-52 2C3 A114N mutant antibody (antibody, human IgG1, kappa)
heavy: not shown
light: DIVMTQTPLSLSVTPGQPASISCKSSQSLLYSNGKTYLNWLLQKPGQSPQRLIYLVSKLDSGVPDRFSGSGSGTDFTLKISRVEAEDVGVYYCVQGTHLHTFGQGTRLEIKRTVAAPSVFIFPPSDEQLKSGTASVVCLLNNFYPREAKVQWKVDNALQSGNSQESVTEQDSKDSTYSLSSTLTLSKADYEKHKVYACEVTHQGLSSPVTKSFNRGEC
modifications: additional N-linked glycan at the engineered Asn 114 (Kabat)
notes: Full-length IgG1; mutated heavy chain with the WT 2C3 light chain
  binding result: binds

B2: Anti-CD-52 2C3 NGT mutant antibody (antibody, human IgG1, kappa)
heavy: not shown
light: B1 light
notes: Full-length IgG1; NGT added to the C-terminus of the heavy chain; WT 2C3 light chain; also called Add NGT to C-terminal
  binding result: binds

B3: Anti-CD-52 2C3 S440N mutant antibody (antibody, IgG1)
heavy: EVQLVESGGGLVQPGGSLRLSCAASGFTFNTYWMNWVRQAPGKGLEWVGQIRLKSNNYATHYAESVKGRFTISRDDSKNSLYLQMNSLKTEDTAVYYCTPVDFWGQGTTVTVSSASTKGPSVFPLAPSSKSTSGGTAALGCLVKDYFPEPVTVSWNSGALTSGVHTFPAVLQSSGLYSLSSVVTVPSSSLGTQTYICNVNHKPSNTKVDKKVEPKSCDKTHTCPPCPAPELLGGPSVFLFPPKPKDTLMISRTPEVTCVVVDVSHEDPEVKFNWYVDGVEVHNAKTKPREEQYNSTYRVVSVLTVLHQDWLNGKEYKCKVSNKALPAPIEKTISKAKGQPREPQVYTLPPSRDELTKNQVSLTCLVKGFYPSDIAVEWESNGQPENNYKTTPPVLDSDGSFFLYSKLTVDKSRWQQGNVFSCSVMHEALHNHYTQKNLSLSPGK
light: B1 light
notes: as for B1
  binding result: binds

B4: Anti-CD-52 2C3 S298N/Y300S mutant antibody (antibody, human IgG1, kappa)
heavy: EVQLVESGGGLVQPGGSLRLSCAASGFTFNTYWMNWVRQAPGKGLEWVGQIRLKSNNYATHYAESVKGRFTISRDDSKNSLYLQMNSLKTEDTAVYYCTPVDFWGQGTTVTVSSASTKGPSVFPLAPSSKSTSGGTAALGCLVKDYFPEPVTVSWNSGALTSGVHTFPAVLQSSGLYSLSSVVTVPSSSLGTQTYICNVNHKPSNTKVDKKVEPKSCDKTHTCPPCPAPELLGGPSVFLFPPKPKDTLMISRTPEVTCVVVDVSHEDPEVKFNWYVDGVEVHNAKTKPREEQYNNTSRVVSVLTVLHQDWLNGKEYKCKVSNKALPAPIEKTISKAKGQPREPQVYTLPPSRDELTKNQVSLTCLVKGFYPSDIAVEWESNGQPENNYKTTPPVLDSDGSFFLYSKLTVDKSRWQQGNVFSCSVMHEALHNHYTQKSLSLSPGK
light: B1 light
notes: Full-length IgG1; also called S298N/Y300S 2C3 variant; S298/Y300S
  binding result: binds

B5: Anti-CD-52 2C3 S442N mutant antibody (antibody, IgG1)
heavy: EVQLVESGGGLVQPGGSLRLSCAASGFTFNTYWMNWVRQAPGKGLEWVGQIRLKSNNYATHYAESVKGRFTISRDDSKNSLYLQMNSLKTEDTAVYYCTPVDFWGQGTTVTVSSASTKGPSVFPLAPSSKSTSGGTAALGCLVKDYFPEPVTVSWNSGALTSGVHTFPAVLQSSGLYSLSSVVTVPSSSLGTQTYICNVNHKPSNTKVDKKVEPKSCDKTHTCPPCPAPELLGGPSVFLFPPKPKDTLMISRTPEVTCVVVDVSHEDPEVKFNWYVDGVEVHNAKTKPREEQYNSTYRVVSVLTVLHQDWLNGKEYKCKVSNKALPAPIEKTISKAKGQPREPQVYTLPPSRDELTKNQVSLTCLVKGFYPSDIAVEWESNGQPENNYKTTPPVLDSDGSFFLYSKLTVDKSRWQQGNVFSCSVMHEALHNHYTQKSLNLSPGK
light: B1 light
notes: as for B1
  binding result: binds
